# According to paper PMC5458116:
# Tested on: MBP-ZnF4 (ZnF_1012 fused to GCN4-p-LI coiled coil) (synthetic construct)
# Assay: EMSA
# Details: 5 nM DNA, 5 nM protein, 5 mM Tris-HCl pH 8.5, 210 mM NaCl, 4.8% glycerol, 0.05% Tween 20, 8 mg/l BSA, 30 min, room temperature, 5% native PAGE in 0.5x Tris-borate
Substance,"binding signal (fold weaker than unmethylated DNA (N1)) (adenine-N6 methylated, N6-methyladenine at GANTC sites (CcrM in vitro, both strands))",binding signal (fold preference over methylated DNA (N2)) (unlabelled competitors added)
CcrM-methylated 152 bp PCR fragment with 2 ZnF binding sites,70,
unmethylated 152 bp PCR fragment with 2 ZnF binding sites,,70
